Laboratory results: the supplement of paper PMC9170038

Legend:
MS2 coat protein [1] = test: apparent KD of MS2 coat protein; designed switch direction (-1 OFF switch, 1 ON switch): 1; higher = weaker reporter binding
In short: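 Designed RNA switches with common flanks were transcribed on Illumina chips by stalled E. coli RNA polymerase and titrated with SNAP-549-labelled MS2 coat protein, from 0.7 or 1.5 nM doubling to 3 µM, in Tris-HCl pH 7.5 buffer with KCl, MgCl2, BSA, DTT, tRNA and Tween-20. Steps lasted 0.8–1.5 h (lowest) to 10–20 min (highest). Titrations ran without input, with 200 uM small-molecule ligand, or with an oligonucleotide input. Normalised cluster fluorescence was curve-fitted, and apparent KD is the per-design median over clusters.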

MS2 coat protein [2] = test: apparent KD of MS2 coat protein; higher = weaker reporter binding; details: Eterna round: R107
In short: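 With or without constant ligand, designed RNA switches in 100 mM Tris-HCl pH 7.5, 80 mM KCl and 4 mM MgCl2 were titrated with SNAP-549-labelled MS2 coat protein. Concentrations went up in twofold steps from 0.7 or 1.5 nM to 3 µM. The switches had been transcribed on-chip from Illumina sequencing clusters, and apparent KD is the per-design median of normalised cluster binding-curve fits.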

[3] = input ligand: microRNA oligo, concentration not stated
[4] = Eterna round: R95, input ligand: FMN 200 uM
[5] = Eterna round: R95, input ligand: microRNA oligo, concentration not stated
[6] = Eterna round: R95, input ligand: none
[7] = input ligand: theophylline 20 uM
[8] = input ligand: theophylline 2 mM
[9] = input ligand: tryptophan 2.4 mM

| Sequence | apparent KD of MS2 coat protein (MS2 coat protein [1]; [3]) [nM] | apparent KD of MS2 coat protein (MS2 coat protein [1]; input ligand: FMN 200 uM) [nM] | apparent KD of MS2 coat protein (MS2 coat protein [1]; input ligand: none) [nM] | further results |
| --- | --- | --- | --- | --- |
| UGUUGUAUUACAGGAUAUCUAGUAUUUUUAUCUAGAGAAGGGUAUUCACAUGAGGAUCACCCAUGUAUAUACGAGGAAGUUGUG [JMF's solution 53] (Eterna round: R96, puzzle: Same State NG 1) | 25.9 | – | – | – |
| ACAAGACAGGGAGGAUAUAGCUGUUCAUCAAAGUUAGAAGGCUCGUACACAUGAGGAUCACCCAUGUUGUCGGCAGUCGACUGA [Eternabot solution 42] (Eterna round: R96, puzzle: Same State NG 1) | 9.67 | 7.44 | 12.2 | – |
| GCUCGAUGAGCGAUUUACAUGAGGAUCACCCAUGUACGUGGGCAGGAUAUUUACGUGCUUUGUGUAGAGAAGGGCCCAUCGAGC [SameState NG3 #72] (Eterna round: R96, puzzle: Same State NG 3) | 309 | 107 | 546 | – |
| GCGAAGAGGUAAGGAUAUGCAUGGCGGAGACAUGAGGAUCACCCAUGUUGGAGACGAAAUCUAGGGUAGAAGGUACCAGGAAGC [AK SSNG2-V2-12] (Eterna round: R96, puzzle: Same State NG 2) | 52.6 | 61.9 | 72.1 | – |
| UGUUGUAUUACAGGAUAUCUAUUAUAUUUAUUUAGAGAAGGGUAUUCACAUGAGGAUCACCCAUGUAUAUACGAGGAAGUUGUG [JMF's solution 15] (Eterna round: R96, puzzle: Same State NG 1) | 36.4 | – | – | – |
| AGCUAUUACGCAGGAUAUAGGGACAUGAGGAUCACCCAUGUGUACAUGAGUAAAUGUGAUCACGUCUAGAAGGGUGUACUAACA [SameState NG2 #37] (Eterna round: R96, puzzle: Same State NG 2) | 326 | 684 | 321 | – |
| UUUUUUAUCGUAGGAUAUAGGUUGAAUAAUAGACUAGAAGGACGUCACAUGAGGAUCACCCAUGUUUUUUAAGUGUCGAAGUGU [JR_SSNG1_Sub040] (Eterna round: R96, puzzle: Same State NG 1) | 23 | 31.3 | 29.4 | – |
| UAACAGUACAAUUUAGAUCUACAUGAGGAUCACCCAUGUACUGAGGAUAUCAGCUCGUUUAGAGCUGAGAAGGCAGAAGAACUA [SSNG3/11-A3] (Eterna round: R96, puzzle: Same State NG 3) | 154 | 39.7 | 218 | – |
| GGUGGGUUGCUGCCGGCACAUGAGGAUCACCCAUGUUUUGGGAAGGAUAUGGUACCUGUUUGGUGCCAGAAGGUCCCGUUGGUG [salish99_SSNG3_r04_711] (Eterna round: R96, puzzle: Same State NG 3) | 526 | 864 | 522 | – |
| GAGAGAGGGUGAGGAUAUUUAGUGAUAAUGAUAAAAGAAGGCACAGACAUGAGGAUCACCCAUGUGGGAAUAAUCCAGAGAGAG [Parity 4 - Jieux - Same State NG 1] (Eterna round: R96, puzzle: Same State NG 1) | 238 | – | – | – |
| UGUUAUUAGACAGGAUAUUGAAUGUUAAGUAUUAACAUGAGGAUCACCCAUGUAUUUCAUUCGUACAAGAAGGGUCAUGUUCCU [JR_SSNG2_Sub017] (Eterna round: R96, puzzle: Same State NG 2) | 162 | – | – | – |
| UGUACCUUCACAGGAUAUCAUGCGAAAAUUGCGUGAGAAGGGUGAAUACUGUCUUUCUAAGAGUACAUGAGGAUCACCCAUGUA [SameState NG1 #60] (Eterna round: R96, puzzle: Same State NG 1) | 56.1 | 50 | 73.8 | – |
| UUGGUUGUCGUAGGAUAUGUAGGAUAUUCCUACAUGAGGAUCACCCAUGUUCGCAUGGAAGAAGGACAGAAGGACGAUGACCAU [pwkr ssNG2 2FMN + 1F5.20] (Eterna round: R96, puzzle: Same State NG 2) | 904 | 16.8 | 836 | – |
| ACAUGAGAGUUAGGAUAUCUUGUACCUACAUGUGACAUGAGGAUCACCCAUGUGGUAAGUAUGACAGAGAAGGAACAGAUAUGU [Equivalance 69 - Jieux - Same State NG 2] (Eterna round: R96, puzzle: Same State NG 2) | 50.2 | 36.2 | 91.1 | – |
| AAAAUGGUAUGUUACAUGAGGAUCACCCAUGUACCGUAAUCUGAGGAUAUGGUGAUGUAGAAGAAUCAGAAGGCAGACAUUUAA [AK SSNG3-V2-24.2] (Eterna round: R96, puzzle: Same State NG 3) | 26.7 | 19.2 | 36.1 | – |
| GGACGUCGAUAAUAUAAUCUCACAUGAGGAUCACCCAUGUCACAGGAUAUGGAUCCUAAUUGGAUCCAGAAGGGUGCGACGUCC [Fiskers NG3ss - 35] (Eterna round: R96, puzzle: Same State NG 3) | 235 | 73.3 | 373 | – |
| UAUAAACAUGAGGAUCACCCAUGUAAUAAUAUGGGAGGAUAUCAGAUUUAAUUUAAUUUAUGAGAAGGCCUAAUAU [Mat - Same State 1 - Mod of Eli - D66] (puzzle: Same State 1) | – | – | – | apparent KD of MS2 coat protein (MS2 coat protein [1]; [4]): 34.3 nM; apparent KD of MS2 coat protein (MS2 coat protein [1]; [5]): 491 nM; apparent KD of MS2 coat protein (MS2 coat protein [1]; [6]): 825 nM |
| GAGAGGAUAUGGAGAGGAUCACCCUCUAGAAGGCUCGAAGGAGAGGAUAUGGAGAGGAUCACCCUCUAGAAGGCUCACUUCUCU [pwkr ssNG3 DX 2xF5 +2xFMN.6] (Eterna round: R96, puzzle: Same State NG 3) | 105 | 256 | 156 | – |
| GUAGGACAUGAGGAUCACCCAUGUGGAGAGGAACGAGGAUAUGUGAGAGGAGUGCAGAGGACAGAAGGCGUGGAGG [JR_SS1_Sub027] (puzzle: Same State 1) | – | – | – | apparent KD of MS2 coat protein (MS2 coat protein [1]; [4]): 42.6 nM; apparent KD of MS2 coat protein (MS2 coat protein [1]; [5]): 31.1 nM; apparent KD of MS2 coat protein (MS2 coat protein [1]; [6]): 62.1 nM |
| UGUUGUUAAUUAGGAUAUGGGCACAUGAGGAUCACCCAUGUAUUGUCGAUGCUAUGUGGACACGUUUAGAAGGAAUGGCUAACA [SameState NG2 #91] (Eterna round: R96, puzzle: Same State NG 2) | 55.4 | 64.4 | 64.8 | – |
| CAGCGCUGUCGAGAGGAUAUGCGGUGAUGGACAUGAGGAUCACCCAUGUUAGCGAUAGCAUUACUGUAGAAGGCUCUACAGCUGC [JL-ss2-3.08 ViennaUCT mod] (puzzle: Same State 2) | – | – | – | apparent KD of MS2 coat protein (MS2 coat protein [1]; [5]): 24.3 nM |
| AUAAAACAUGAGGAUCACCCAUGUCAACAAAGUCGAGGAUAUUGGCAAAUAAAAUAAGAACCAGAAGGCGAAUAAU [salish99_ss1_r3_050] (puzzle: Same State 1) | – | – | – | apparent KD of MS2 coat protein (MS2 coat protein [1]; [4]): 17.5 nM; apparent KD of MS2 coat protein (MS2 coat protein [1]; [5]): 23.1 nM; apparent KD of MS2 coat protein (MS2 coat protein [1]; [6]): 23.4 nM |
| UACAAUCUAUCUGAGGAUAUCAUGAAUUAAACAUGAGGAUCACCCAUGUGCAGGAAAACUGCAUAUGAGAAGGCAGAUAGAUUGU [salish99_ss2_r3_060] (puzzle: Same State 2) | – | – | – | apparent KD of MS2 coat protein (MS2 coat protein [1]; [4]): 52.9 nM; apparent KD of MS2 coat protein (MS2 coat protein [1]; [5]): 2.45 nM; apparent KD of MS2 coat protein (MS2 coat protein [1]; [6]): 804 nM |
| UUCAGACAUGAGGAUCACCCAUGUACUGAAGGAGCGGAUAAAUAUCCAGGUAGGUCGCAGUAUUGAGGGUCUACUUCCAGUCUUA [Rexeesqu] | – | – | – | apparent KD of MS2 coat protein (MS2 coat protein [2]; input ligand: arginine 13.2 mM): 11.7 nM; apparent KD of MS2 coat protein (MS2 coat protein [2]; input ligand: none): 9.36 nM; apparent KD of MS2 coat protein (MS2 coat protein [2]; [7]): 12.9 nM; apparent KD of MS2 coat protein (MS2 coat protein [2]; [8]): 10.4 nM; apparent KD of MS2 coat protein (MS2 coat protein [2]; [9]): 10.1 nM |
| AGAUGUAGCGGAAGGAGCGUCAUGAGGAUCACCCAUGGCUCCCGUUGUGGGAGUUCCUUAGGUCAGGUAGGUCGCCGUUACGUCA [Omei Arg B SS B v6] | – | – | – | apparent KD of MS2 coat protein (MS2 coat protein [2]; input ligand: arginine 13.2 mM): 79.7 nM; apparent KD of MS2 coat protein (MS2 coat protein [2]; input ligand: none): 359 nM; apparent KD of MS2 coat protein (MS2 coat protein [2]; [7]): 187 nM; apparent KD of MS2 coat protein (MS2 coat protein [2]; [8]): 254 nM; apparent KD of MS2 coat protein (MS2 coat protein [2]; [9]): 137 nM |
| UCGUGUGUUUCGGAUACCAGUGUGGUCGAUACAUGAGGAUCACCCAUGUUAGAGGAGGUACACCCUUGGCAGCCGGCUGUUGCGG [kdtmullin] | – | – | – | apparent KD of MS2 coat protein (MS2 coat protein [2]; input ligand: arginine 13.2 mM): 59.9 nM; apparent KD of MS2 coat protein (MS2 coat protein [2]; [7]): 88.5 nM; apparent KD of MS2 coat protein (MS2 coat protein [2]; [9]): 79.5 nM |
| ACACAUGAGGAUCACCCAUGUCCAAUAGAUACCAGUGAUACGGUGCACCCUUGGCAGCUGUUGCUGAGUGAUGGUUCCCUCGGAA [Same State Theophylline A GF4] | – | – | – | apparent KD of MS2 coat protein (MS2 coat protein [2]; input ligand: arginine 13.2 mM): 48.6 nM; apparent KD of MS2 coat protein (MS2 coat protein [2]; [7]): 138 nM; apparent KD of MS2 coat protein (MS2 coat protein [2]; [9]): 112 nM |
| UGUAUGUGAUCUGAUACCAGCGUUGAUAACCUGAGGAUCACCCUGGUAAAGGCGAAAGCCCGCCCUUGGCAGCAGAUCGCAUACU | – | – | – | apparent KD of MS2 coat protein (MS2 coat protein [2]; input ligand: arginine 13.2 mM): 182 nM; apparent KD of MS2 coat protein (MS2 coat protein [2]; input ligand: none): 611 nM; apparent KD of MS2 coat protein (MS2 coat protein [2]; [7]): 280 nM; apparent KD of MS2 coat protein (MS2 coat protein [2]; [8]): 24.9 nM; apparent KD of MS2 coat protein (MS2 coat protein [2]; [9]): 787 nM |
| CGCUGGCCACAUGAGGAUCACCCAUGUGAAGGAGCGGCGAAUAAGCCAGGUAGGUCGCGCAUGAAUAAAUCAUGUAGGUUGCGAA [XArg-A 11 V2] | – | – | – | apparent KD of MS2 coat protein (MS2 coat protein [2]; input ligand: arginine 13.2 mM): 16.9 nM; apparent KD of MS2 coat protein (MS2 coat protein [2]; input ligand: none): 13.4 nM; apparent KD of MS2 coat protein (MS2 coat protein [2]; [7]): 14.9 nM; apparent KD of MS2 coat protein (MS2 coat protein [2]; [8]): 17.9 nM; apparent KD of MS2 coat protein (MS2 coat protein [2]; [9]): 14.5 nM |
| CCGUUUUAUGGCGACAUAGGGCGGACUGAAGGAGCGGUAUAAUAGCCAGGUAGGUCGCAGAGAUCCACAUGAGGAUCACCCAUGU [!0.aB] | – | – | – | apparent KD of MS2 coat protein (MS2 coat protein [2]; input ligand: arginine 13.2 mM): 73.9 nM; apparent KD of MS2 coat protein (MS2 coat protein [2]; input ligand: none): 34.3 nM; apparent KD of MS2 coat protein (MS2 coat protein [2]; [7]): 51.5 nM; apparent KD of MS2 coat protein (MS2 coat protein [2]; [8]): 42.9 nM; apparent KD of MS2 coat protein (MS2 coat protein [2]; [9]): 34.3 nM |
